Test results published in US20230365684A1 (Janssen / Centocor, published 2023).

B1: C33B1780 (llama vHH on mono-Fc backbone) (Fc fusion)
chain: EVQLVESGGGLVQPGGSLRLSCAVFGFSLSDYAIGWFRQAPGKEREKVSCISESDGRTYLSDSVKSRFTISRDNGKNTVYLQMNNLKPDDTGVYYCATVDQAISESSYHCEKGFGSWGQGTQVTVSS
notes: not shown: mono-Fc backbone
B2: C33B806.006 (antibody, V domains shown)
VH: QLQLQESGPGLVKPSETLSLTCTVSGGSISSSSYYWGWIRQPPGKGLDWIGSINYSGSTYYNPSLKSRVTISVDTSKIQFSLKLRSVTAADTAVYYCARLDGYESPFDYWGQGTLVTVSS
VL: DIQMTQSPSSVSASVGDRVTITCRASQGISSWLAWYQQKPGKAPKLLIYAASSLQSGVPSRFSGSGSGTDFTLTISSLQPEDFATYYCQQANSFPFTFGPGTKVDIK
B3: C33B1477 (antibody, V domains shown)
VH: EVQLVESGGGLVQPGGSLKVSCEASGFTFSVSAIHWVRQASGKGLEWIGRIRSKGNSYATAYAASVKGRFTISRDDSKNTAYLQMDSLKTEDTAVYYCTRHNDKWNYYGLDVWGQGTTVTVSS
VL: DIVMTQSPLSLPVTPGEPASISCKSSQSLLFSNGYKFLDWYLQRPGQSPQLLIYLGSYRASGVPDRFSGSGSGTDFTLKISRVEAEDVGLYYCMQALQTPPTFGGGTKVEIK
notes: also called sCD33B1477
B4: C33B836.006 (antibody, V domains shown)
VH: QVQLVQSGSELRKPGASVKVSCKASGYTFTNYAMNWVRQAPGQGLEWMGWINTNTGNPTYAQGFTGRFVFSLDTSVSSAYLQISSLKAEDTAMYYCATDRDRGTDYWGQGTLVTVSS
VL: QSALTQPASVSGSPGQSITISCTGTSSDVGDYNYVSWYQQHPGKVPKLMIYDVSNRPSGVSNRFSGSMSGNTASLTISGLQAEDEADYYCSSYSSSSALEVFGGGTKLTVL
notes: also called sC33B836.006
B5: C33B904 (antibody, V domains shown)
VH: EVQLVESGGGLVQPGRSLRLSCAASGFTFDDYAMHWVRQAPGKGLEWVSGIGWSGGSIVYADSVKGRFTISRDNAKNSLYLQMNSLRAEDTALYYCAKDSPYGDFFDYWGQGTLVTVSS
VL: DIVMTQSPDSLAVSLGERATINCKSSQTVFYSSNNKNYLAWYQQKPGQPPKLLISWASTRKSGVPDRFSGSGSGTDFTLTVSSLQAEDVAVYYCQHYYSTPYTFGQGTKLEIK
notes: also called anti-CD33 antibody (clone C33B904); anti-CD33 clone C33B904

Assays:
[1] = target: T1, human CD33 (full length ECD), recombinant (human, UniProt P20138 18-259); experiment: SPR, Biacore 8K, 25 °C, vHH-mono-Fc captured by anti-Fc antibody, CD33-hu-FL injected as analyte, 1:1 binding model [contd]
T1 construct: extracellular domain; Tag or HSA fusion partner unknown; also called hu CD33 (FL ECD); hCD33-FL ECD
T1 sequence (P20138 18-259): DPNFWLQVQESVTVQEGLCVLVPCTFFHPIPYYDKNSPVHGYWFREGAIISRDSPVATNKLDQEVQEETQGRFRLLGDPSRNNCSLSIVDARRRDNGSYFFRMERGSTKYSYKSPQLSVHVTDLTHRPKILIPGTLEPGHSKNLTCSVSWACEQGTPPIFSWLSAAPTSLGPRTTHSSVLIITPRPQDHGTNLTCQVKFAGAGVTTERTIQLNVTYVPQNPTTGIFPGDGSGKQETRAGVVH
Procedure: (§1) The binding affinity of anti-CD33 antibodies and Llama vHHs to the recombinant human CD33 (FL ECD or IgC2 domain) was determined by surface plasmon resonance (SPR) using Biacore 8K instrument. […] The association and dissociation were monitored for 2 and 30 minutes, respectively, using a flow rate of 50 μL/min. Raw binding data was referenced by subtracting the analyte binding signals from blanks and analyzed using a 1:1 Langmuir binding model using the Biacore software to obtain the kinetics which were used to calculate the binding affinity.
(§2) The anti-CD33 Llama vHHs on a mono-Fc backbone were captured using an anti-human Fc antibody and the antigens were injected in solution.

[2] = target: T2, human CD33 IgC2 domain, recombinant (human, UniProt P20138 136-259); experiment: SPR, Biacore 8K, 25 °C, vHH-mono-Fc captured by anti-Fc antibody, CD33-hu-domain injected as analyte, 1:1 binding model
T2 construct: domain: IgC2; also called hu CD33 (IgC2); hCD33-IgC2
T2 sequence (P20138 136-259 limits assumed): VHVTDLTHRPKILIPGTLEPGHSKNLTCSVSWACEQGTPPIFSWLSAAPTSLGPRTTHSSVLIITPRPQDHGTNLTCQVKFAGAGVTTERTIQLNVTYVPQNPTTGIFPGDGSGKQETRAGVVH
Procedure: as §1, §2

[3] = target: T1, human CD33 (full length ECD), …; experiment: SPR (Biacore 8K), vHH-mono-Fc captured by anti-human Fc, antigen in solution
Procedure: as §1, §2

[4] = target: T2, human CD33 IgC2 domain, recombinant; experiment: as above
Procedure: as §1, §2

[5] = target: T3, human CD33 on cells (MOLM-13, Kasumi-1, OCI-AML-3, Kasumi-3) (human, UniProt P20138 18-364); experiment: flow cytometry on OCI-AML-3 cells, 4 °C, detection with PE goat F(ab')2 anti-human IgG-Fc [contd]
T3 construct: whole, on cells; also called CD33 expressing cells; CD33+ cell lines
T3 sequence (P20138 18-364): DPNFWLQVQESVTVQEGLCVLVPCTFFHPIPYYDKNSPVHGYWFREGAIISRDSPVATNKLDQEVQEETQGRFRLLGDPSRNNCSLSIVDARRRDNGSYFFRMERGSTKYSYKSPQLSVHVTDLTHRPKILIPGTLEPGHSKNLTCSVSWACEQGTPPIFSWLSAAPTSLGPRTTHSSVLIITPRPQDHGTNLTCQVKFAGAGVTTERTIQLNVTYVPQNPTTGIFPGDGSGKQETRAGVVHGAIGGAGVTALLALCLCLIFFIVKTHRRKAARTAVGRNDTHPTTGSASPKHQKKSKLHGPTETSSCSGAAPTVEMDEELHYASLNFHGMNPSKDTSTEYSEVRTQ

[6] = target: T3, human CD33 on cells (MOLM-13, Kasumi-1, …); experiment: flow cytometry on OCI-AML-3 cells, 4 °C, serial dilutions of the antibody
Procedure: (§3) Cells were harvested, washed once with PBS and then stained with the fixable viability dye at room temperature for 30 min. Following incubation, cells were washed twice with FACS buffer (PBS+2% FBS). Cells were then used for binding assay with test antibodies. 100,000 cells were stained with the test antibodies in a 100 ul staining volume. Antibodies for staining were diluted in FACS buffer and incubated with the cells for 40 mins on ice, followed by washing 2X with FACS buffer. Test antibodies were then detected using the PE conjugated Goat F(ab′)2 Anti-Human IgG-Fc (ab98596; Abcam) for 40 minutes on ice. Following washing, data was acquired on the Novocyte flow cytometer (ACEA). Cells were gated on FSC/SSC, followed by live cell gating and doublet discrimination. Data was analyzed using Flow Jo (BD).
(§4) Median fluorescence intensity values were used to plot a 4-parameter non-linear regression analysis curve after subtracting the MFI of the secondary only sample.
(§5) The binding EC₅₀ values of CD33 antibodies to high (MOLM-13), medium (Kasumi-1) and low (OCI-AML-3) cell lines were assayed. Binding was carried out at 4° C. with serial dilutions of the antibody.

[7] = target: T3, human CD33 on cells (MOLM-13, Kasumi-1, …); experiment: flow cytometry on MOLM-13 cells, 4 °C, serial dilutions of the antibody
Procedure: as §3, §4, §5

[8] = target: T3, human CD33 on cells (MOLM-13, Kasumi-1, …); experiment: flow cytometry on Kasumi-1 cells, 4 °C, serial dilutions of the antibody
Procedure: as §3, §4, §5

[9] = target: T3, human CD33 on cells (MOLM-13, Kasumi-1, …); experiment: flow cytometry on OCI-AML-3 cells, 4 °C, detection with PE goat F(ab')2 anti-human IgG-Fc [contd]; remark: listed apart in the source
[10] = target: T3, human CD33 on cells (MOLM-13, Kasumi-1, …); experiment: flow cytometry on MOLM-13 cells, 4 °C, detection with PE goat F(ab')2 anti-human IgG-Fc
Procedure: MOLM-13, Kasumi-1, OCI-AML-3 and HDLM-2 cells were stained for viability by fixable violet dead cell stain (L34955, ThermoFisher) according to the manufacturer's protocol. Cells were harvested, washed once with PBS and then stained with the fixable viability dye at room temperature for 30 min. Following incubation, cells were washed twice with FACS buffer (PBS+2% FBS). Cells were then used for binding assay with test antibodies. 100,000 cells were stained with the test antibodies in a 100 ul staining volume. Antibodies for staining were diluted in FACS buffer and incubated with the cells for 40 mins on ice, followed by washing 2X with FACS buffer. Test antibodies were then detected using the PE conjugated Goat F(ab′)2 Anti-Human IgG-Fc (ab98596; Abcam) for 40 minutes on ice. Following washing, data was acquired on the Novocyte flow cytometer (ACEA). […] Data was analyzed using Flow Jo (BD).
as §4
Binding was performed by incubating the cells with the serial dilutions of the CD33 antibody at 4° C. followed by detection with PE conjugated Goat F(ab′)2 Anti-Human IgG-Fc antibody. […] Median fluorescence intensity (MFI) versus log concentration of antibody are plotted.

[11] = target: T3, human CD33 on cells (MOLM-13, Kasumi-1, …); experiment: FACS binding on Kasumi-1 cells
[12] = target: T3, human CD33 on cells (MOLM-13, Kasumi-1, …); experiment: FACS binding on MOLM-13 cells
[13] = target: T3, human CD33 on cells (MOLM-13, Kasumi-1, …); experiment: FACS binding on OCI-AML-3 cells

Binder | EC50 (read off the curve) [5] [µg/mL] | EC50 [6] [nM] | EC50 [7] [nM] | EC50 [8] [nM] | also measured
B1 |  |  |  |  | koff [1]: 0.00117 s⁻¹; kon [1]: 1.38e+06 M⁻¹ s⁻¹; kon [2]: 962000 M⁻¹ s⁻¹; Kd [3]: 0.847 nM; Kd [4]: 3.38 nM
B2 | ~2 | 15.3 | 35.6 | 0.13 | 
B3 |  | 0.6 | 56 |  | EC50 (read off the curve) [9]: ~0.09 µg/mL
B4 | ~0.08 | 0.46 | 0.5 | 17.1 | EC50 (read off the curve) [10]: ~0.08 µg/mL
B5 |  |  |  |  | EC50 [11]: 82.2 nM; EC50 [12]: 134 nM; EC50 [13]: 16.4 nM
